Laboratory results published in the supplement of paper PMC12783771.
± gives the standard deviation of the averaged measurements.

B1: library; numbered along this chain (parent)
chain: MNIQIGELAKRTACPVVTIRFYEQEGLLPPPGRSRGNFRLYGEEHVERLQFIRHCRSLDMPLSDVRTLLSYRKRPDQDCGEVNMLLDEHIRQVESRIGALLELKHHLVELREACSGARPAQSCGILQGLSDCVCDTRGTTAHPSD

Tests used:
[1] = variants of: B1; experiment: sfGFP reporter fluorescence (15 h) (µM FITC); higher = higher leak; conditions: library round: Round 0; ligand: none
Outline: (§1)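 Readout was endpoint sfGFP fluorescence, converted to µM FITC through standard curves. Reactions were 1 μL of BL21 Star (DE3) PANOx-SP extract with pPbrR-sfGFP reporter, 30 μg/mL GamS and linear PbrR templates normalized to 5 nM, containing 1 µM lead chloride, 30 µM zinc acetate or no metal. Incubation lasted 15 hr at 30 °C, with up to three biological replicates.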

[2] = variants of: B1; experiment: sfGFP reporter fluorescence (15 h) (µM FITC); higher = stronger transcriptional activation; conditions: library round: Round 0
Outline: as §1

Row | Variant | sfGFP reporter fluorescence [1] | sfGFP reporter fluorescence ([2]; ligand: 1 µM Pb) | sfGFP reporter fluorescence ([2]; ligand: 30 µM Zn)
1 | MNIQIGELAKRTACPVVTIRFYEQEGLLPPPGRSRGNFRLYGEEHVERLQFIRHCRSLDMPLSDVRTLLSYRKRPDQDCGEVNMLLDEHIRQVESRIGALLELKHHLVELREACSGARPAQSCGICQGLSDCVCDTRGTTAHPSD [L126C] | 0.059 ± 0.0036 | 0.0572 ± 0.001 | 0.0563 ± 0.0029
2 | MNIQIGELAKRTACPVVTIRFYEQEGLLPPPGRSRGNFRLYGEEHVERLQFIRHCRSLDMPLSDVRTLLSYRKRPDQDCGEVNMLLDEHIRQVESRIGALLELKHHLVELREACSGARPAQSCGIEQGLSDCVCDTRGTTAHPSD [L126E] | 0.0594 ± 0.0021 | 0.05772 ± 0.00026 | 0.0557 ± 0.001
3 | MNIQIGELAKRTACPVVTIRFYEQEGLLPPPGRSRGNFRLYGEEHVERLQFIRHCRSLDMPLSDVRTLLSYRKRPDQDCGEVNMLLDEHIRQVESRIGALLELKHHLVELREACSGARPAQSCGIHQGLSDCVCDTRGTTAHPSD [L126H] | 0.0603 ± 0.0018 | 0.0588 ± 0.00078 | 0.0552 ± 0.006
4 | MNIQIGELAKRTACPVVTIRFYEQEGLLPPPGRSRGNFRLYGEEHVERLQFIRHCRSLDMPLSDVRTLLSYRKRPDQDCGEVNMLLDEHIRQVESRIGALLELKHHLVELREACSGARPAQSCGIKQGLSDCVCDTRGTTAHPSD [L126K] | 0.0597 ± 0.0031 | 0.05919 ± 0.00026 | 0.0564 ± 0.001
5 | MNIQIGELAKRTACPVVTIRFYEQEGLLPPPGRSRGNFRLYGEEHVERLQFIRHCRSLDMPLSDVRTLLSYRKRPDQDCGEVNMLLDEHIRQVESRIGALLELKHHLVELREACSGARPAQSCGINQGLSDCVCDTRGTTAHPSD [L126N] | 0.05901 ± 0.00052 | 0.05882 ± 0.00026 | 0.05333 ± 0.00026
6 | MNIQIGELAKRTACPVVTIRFYEQEGLLPPPGRSRGNFRLYGEEHVERLQFIRHCRSLDMPLSDVRTLLSYRKRPDQDCGEVNMLLDEHIRQVESRIGALLELKHHLVELREACSGARPAQSCGIMQGLSDCVCDTRGTTAHPSD [L126M] | 0.0594 ± 0.0015 | 0.0596 ± 0.0018 | 0.22 ± 0.032
7 | MNIQIGELAKRTACPVVTIRFYEQEGLLPPPGRSRGNFRLYGEEHVERLQFIRHCRSLDMPLSDVRTLLSYRKRPDQDCGEVNMLLDEHIRQVESRIGALLELKHHLVELREACSGARPAQSCGIIQGLSDCVCDTRGTTAHPSD [L126I] | 0.0542 ± 0.001 | 0.0568 ± 0.0015 | 0.238 ± 0.012
8 | MNIQIGELAKRTACPVVTIRFYEQEGLLPPPGRSRGNFRLYGEEHVERLQFIRHCRSLDMPLSDVRTLLSYRKRPDQDCGEVNMLLDEHIRQVESRIGALLELKHHLVELREACSGARPAQSCGIQQGLSDCVCDTRGTTAHPSD [L126Q] | 0.05901 ± 0.00052 | 0.0577 ± 0.0018 | 0.05534 ± 0.00052
9 | MNIQIGELAKRTACPVVTIRFYEQEGLLPPPGRSRGNFRLYGEEHVERLQFIRHCRSLDMPLSDVRTLLSYRKRPDQDCGEVNMLLDEHIRQVESRIGALLELKHHLVELREACSGARPAQSCGIFQGLSDCVCDTRGTTAHPSD [L126F] | 0.05699 ± 0.00026 | 0.0583 ± 0.001 | 0.0586 ± 0.0021
10 | MNIQIGELAKRTACPVVTIRFYEQEGLLPPPGRSRGNFRLYGEEHVERLQFIRHCRSLDMPLSDVRTLLSYRKRPDQDCGEVNMLLDEHIRQVESRIGALLELKHHLVELREACSGARPAQSCGIDQGLSDCVCDTRGTTAHPSD [L126D] | 0.0597 ± 0.0021 | 0.0581 ± 0.00078 | 0.0544 ± 0.0029
11 | MNIQIGELAKRTACPVVTIRFYEQEGLLPPPGRSRGNFRLYGEEHVERLQFIRHCRSLDMPLSDVRTLLSYRKRPDQDCGEVNMLLDEHIRQVESRIGALLELKHHLVELREACSGARPAQSCGIRQGLSDCVCDTRGTTAHPSD [L126R] | 0.0619 ± 0.0015 | 0.05992 ± 0.00026 | 0.0572 ± 0.0021
12 | MNIQIGELAKRTACPVVTIRFYEQEGLLPPPGRSRGNFRLYGEEHVERLQFIRHCRSLDMPLSDVRTLLSYRKRPDQDCGEVNMLLDEHIRQVESRIGALLELKHHLVELREACSGARPAQSCGIAQGLSDCVCDTRGTTAHPSD [L126A] | 0.0685 ± 0.001 | 0.0682 ± 0.0026 | 0.0691 ± 0.0039
13 | MNIQIGELAKRTACPVVTIRFYEQEGLLPPPGRSRGNFRLYGEEHVERLQFIRHCRSLDMPLSDVRTLLSYRKRPDQDCGEVNMLLDEHIRQVESRIGALLELKHHLVELREACSGARPAQSCGIGQGLSDCVCDTRGTTAHPSD [L126G] | 0.0539 ± 0.0015 | 0.05571 ± 0.00052 | 0.0502 ± 0.0021
14 | MNIQIGELAKRTACPVVTIRFYEQEGLLPPPGRSRGNFRLYGEEHVERLQFIRHCRSLDMPLSDVRTLLSYRKRPDQDCGEVNMLLDEHIRQVESRIGALLELKHHLVELREACSGARPAQSCGIPQGLSDCVCDTRGTTAHPSD [L126P] | 0.05552 ± 0.00026 | 0.0555 ± 0.0023 | 0.05113 ± 0.00026
